In patent US20210181204A1:

Biological target: eCry3.1Ab hybrid insecticidal protein
Test: direct ELISA: eCry3.1Ab coated at 1 ug/ml, RGS-His HRP detection

B1: synNAPS13 variant Y44A (designed binder)
chain: RGSHHHHHHGSMVKVKFKRWGEEKEVDTSKILHVLRVGKYVRFSYDDNGKLGAGAVTEKDAPKELLDMLARAEREKK
  Binding (OD 450 nm): 0.4 OD 450 nm
